Experimental data from article PMC2748305.

Key:
[1] = substrate: O=C(O)CCC(=O)N[C@H](CCC(=O)O)C(=O)O; test: steady-state kinetics; assay type: biochemical, Bordetella bronchiseptica; conditions: Zn2+; pH 7.5
[2] = substrate: O=CN[C@H](CCC(=O)O)C(=O)O; test: steady-state kinetics; assay type: biochemical, Bordetella bronchiseptica; conditions: Zn2+; pH 7.5

B1: Bb3285 (N-acyl-D-glutamate deacylase) (Bordetella bronchiseptica RB50) (protein)
chain: MQNAEKLDFKITGGWIIDGTGAPRRRADLGVRDGRIAAIGELGAHPARHAWDASGKIVAPGFIDVHGHDDLMFVEKPDLRWKTSQGITTVVVGNCGVSAAPAPLPGNTAAALALLGETPLFADVPAYFAALDAQRPMINVAALVGHANLRLAAMRDPQAAPTAAEQQAMQDMLQAALEAGAVGFSTGLAYQPGAVAQAAELEGLARVAAERRRLHTSHIRNEADGVEAAVEEVLAIGRGTGCATVVSHHKCMMPQNWGRSRATLANIDRAREQGVEVALDIYPYPGSSTILIPERAETIDDIRITWSTPHPECSGEYLADIAARWGCDKTTAARRLAPAGAIYFAMDEDEVKRIFQHPCCMVGSDGLPNDARPHPRLWGSFTRVLGRYVREARLMTLEQAVARMTALPARVFGFAERGVLQPGAWADVVVFDPDTVADRATWDEPTLASVGIAGVLVNGAEVFPQPPADGRPGQVLRAGA
Q: With B1 as the protein, how does the kcat/Km [1] read?
A: 96000 ± 35000 M⁻¹ s⁻¹

Q: What about the Km [2] of the same protein?
A: 380 ± 35 µM

Q: What about the kcat [2] of the same protein?
A: 2200 ± 72 s⁻¹
